# US20090124555A1, “USE OF HISTOGRANIN AND HISTOGRANIN-LIKE COMPOUNDS AS INHIBITORS OF P2X7 RECEPTOR FUNCTION AND AS ANTI-ARTHRITIC AGENTS” (priority 2005, published 2009)
# “Also recorded” adds a separate entry of the source.
# Experiments:
# P2X7 receptor [1] = target: T1, P2X7 receptor (Mus musculus, UniProt Q9Z1M0); experiment: P2X7 receptor-stimulated IL-1.beta release ex vivo, blood-based IL-1.beta assay in CIA mice; settings: blood of i.p. treated CIA mice, FIG. 12C
# T1 construct: from tissue; host or cells: living mice; peritoneal cavity (lavage fluid analysed)
# T1 sequence (Q9Z1M0 1-595): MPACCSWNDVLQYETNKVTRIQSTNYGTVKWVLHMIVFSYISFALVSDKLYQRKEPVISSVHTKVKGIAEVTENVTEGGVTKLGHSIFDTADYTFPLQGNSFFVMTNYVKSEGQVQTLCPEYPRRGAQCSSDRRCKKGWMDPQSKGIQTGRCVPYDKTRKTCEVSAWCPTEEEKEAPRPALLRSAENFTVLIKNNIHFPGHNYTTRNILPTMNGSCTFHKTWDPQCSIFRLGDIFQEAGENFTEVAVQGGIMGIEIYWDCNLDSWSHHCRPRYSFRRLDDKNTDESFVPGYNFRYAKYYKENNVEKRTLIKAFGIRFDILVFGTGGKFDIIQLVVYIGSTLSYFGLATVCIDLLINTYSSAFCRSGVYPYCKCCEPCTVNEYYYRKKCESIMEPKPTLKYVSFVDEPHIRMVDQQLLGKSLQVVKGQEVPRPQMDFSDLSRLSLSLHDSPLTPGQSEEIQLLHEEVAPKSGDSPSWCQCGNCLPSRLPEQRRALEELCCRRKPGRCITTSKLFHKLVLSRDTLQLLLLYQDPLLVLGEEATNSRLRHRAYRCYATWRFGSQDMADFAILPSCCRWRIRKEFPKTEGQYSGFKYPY
# Experimental: P2X7 receptor-stimulated IL-1 release ex vivo was performed with a blood-based IL-1.beta assay (Perregaux et al. (2000) J. Immunol. 165:4615-4623). Blood was collected from mice in each group in heparin-containing tubes. A total of 120 μl of blood was placed into an individual well of a 96-well plate and diluted with 120 μl RPMI 1640 medium containing 25 mM HEPES and 1% dialysed FBS. The diluted blood samples were incubated for 3 h in the presence and absence of LPS (1 μg/ml) at 37° C. in 5% CO2. ATP (5 mM, pH 7) was then added as a secretion stimulus and the mixtures were incubated at 37° C. for an additional 2 h. The 96-well plates were then centrifuged at 700×g for 10 min at 4° C., and the resulting plasma samples were collected and assayed for their IL-1.beta content by ELISA (R&D Systems, Minneapolis, Minn.).
# P2X7 receptor [2] = target: T1, P2X7 receptor; experiment: ATP-induced extracellular release of IL-1.beta, IL-1.alpha and IL-6 in vivo (peritoneal lavage of LPS-primed mice); settings: 0.1 mg and 0.3 mg i.p. 15 min before ATP, FIG. 6B
# Experimental: Groups of mice were injected intraperitoneally (i.p.) with 50 μg of LPS. Two hours after this LPS injection, mice were injected i.p. with either PBS or ATP (5 mM, adjusted to pH 7), or with HN compounds (0.1 mg and 0.3 mg) 15 minutes before ATP injection. Mice were sacrificed 30 minutes (IL-1.beta and IL-1.alpha) or 120 minutes (IL-6) after the ATP or PBS injection and peritoneal cavities were lavaged each with 3 ml PBS. Samples of peritoneal lavages were centrifuged, cell-free supernatants were collected and tested for the presence of IL-1.beta, IL-1.alpha and IL-6 using ELISA (R&D Systems, Minneapolis, Minn., and Biosource, Camarillo, Calif., respectively).
# P2X7 receptor [3] = target: T2, P2X7 receptor (Rattus norvegicus, UniProt Q64663); experiment: ATP-induced membrane permeabilization and pore formation (ethidium bromide uptake) in alveolar macrophages; assay type: cell-based; settings: rat alveolar macrophages, FIG. 1A
# T2 construct: Alveolar macrophages (AM) were recovered from normal rats by bronchoalveolar lavage; endogenous in cells; host or cells: primary alveolar macrophages from male Wistar rats (bronchoalveolar lavage)
# T2 sequence (Q64663 1-595): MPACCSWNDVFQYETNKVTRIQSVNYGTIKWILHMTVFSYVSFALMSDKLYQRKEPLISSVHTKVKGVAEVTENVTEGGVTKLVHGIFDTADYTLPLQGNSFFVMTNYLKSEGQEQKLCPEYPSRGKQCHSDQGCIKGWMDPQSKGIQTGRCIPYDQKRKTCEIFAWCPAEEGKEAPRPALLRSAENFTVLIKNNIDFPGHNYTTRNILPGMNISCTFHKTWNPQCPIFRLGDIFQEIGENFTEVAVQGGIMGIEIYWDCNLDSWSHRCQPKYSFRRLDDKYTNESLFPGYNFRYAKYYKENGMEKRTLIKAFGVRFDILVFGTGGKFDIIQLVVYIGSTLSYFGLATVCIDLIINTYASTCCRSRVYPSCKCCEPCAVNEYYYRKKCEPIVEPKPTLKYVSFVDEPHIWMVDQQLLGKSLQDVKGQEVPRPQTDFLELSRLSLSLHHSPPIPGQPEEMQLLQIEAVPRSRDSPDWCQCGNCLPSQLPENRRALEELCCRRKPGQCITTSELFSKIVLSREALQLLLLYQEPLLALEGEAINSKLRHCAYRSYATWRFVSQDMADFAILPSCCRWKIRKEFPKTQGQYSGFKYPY
# Experimental: Alveolar macrophages (AM) were recovered from normal rats by bronchoalveolar lavage (BAL) as described previously (Lemaire (1991) Am. J. Pathol. 138:487-495). The lungs were lavaged with 7 ml-aliquots of sterile phosphate buffered saline (pH 7.4; Wisent, St. Bruno, QC), and BAL cells were obtained by centrifugation at 200×g at 4° C. for 5 minutes. The cells were resuspended in RPMI 1640 medium (Wisent, St-Bruno, QC) supplemented with 0.5% dialysed fetal bovine serum (Wisent. St-Bruno, QC), 0.005% gentamycin (Schering Canada Inc. Pointe Claire. QC) and 0.8% HEPES (Sigma Chemical Co., St-Louis, MO) which will henceforth be referred to as complete culture medium (CM).
# Freshly isolated AM (1×10^5) were incubated in 200 μl complete medium in 96 wells tissue culture plates for 24 h. Following centrifugation, medium was replaced with saline solution containing 125 mM NaCl, 5 mM KCL, 1 mM MgSO4, 1 mM Na2HPO4, 5.5 mM glucose, 5 mM NaHCO3, 1 mM CaCl2 and 20 mM Hepes, pH 7.6. Ethidium bromide was added to a final concentration of 20 μM and AM were stimulated with ATP (5 mM, Sigma), 3′-O-(4-benzoylbenzoyl ATP (BzATP) (0.5 mM, Molecular Probes) or uridine 5′-triphosphate (UTP) (Sigma), at 37° C. for 5 minutes. In some experiments, cells were pre-treated with oxidized ATP (oATP, 0.1 mM, Sigma) for 2 h or Brilliant Blue G (BBG, 5×10^−9M, Sigma) for 5 minutes, or HN compounds for 5 minutes before ATP stimulation. After ATP stimulation, the plate was centrifuged (200×g, 1 minute), culture supernatants were replaced with fresh buffer and the fluorescence was analyzed using a Zeiss Axiovert S1100 TV inverted microscope equipped with a rhodamine filter and a 32× objective. Images were captured and analysed with the Northern Eclipse image analysis software. Data are expressed as percentage of cells that become permeabilized to ethidium bromide.
# [4] = system: DBA/1 mice with collagen-induced arthritis; experiment: Collagen-induced arthritis (CIA) in mice, clinical and histologic scoring; assay type: in vivo; settings: 0.3 mg i.p. daily before LPS and onset
# Experimental: For induction of arthritis, DBA/1 mice (The Jackson Laboratory, Bar Harbor, Me.) were immunized intradermally at the base of the tail with bovine type II collagen (100 μg; Chondrex, Richmond, Wash.) emulsified in Freund's complete adjuvant (Chondrex, Richmond, Wash.). On day 21, the animals were boosted with an intradermal injection of 100 μg type II collagen. To synchronize the onset of arthritis, mice were subsequently injected i.p. with LPS (50 μg) (Yoshino et al. (2000) J. Immunol. 163:3417-3422).
# To test the subject of the present invention, mice were divided in various groups: mice injected with saline (negative control), mice injected with collagen and LPS (positive control), mice injected with collagen and treated i.p. daily with HN compound starting 2 days before i.p. injection of LPS and onset of arthritis, and mice injected with collagen and LPS, and treated i.p. daily with RN compound after the onset of arthritis as monitored by the presence of a positive clinical score index as described below.
# The incidence of arthritis was monitored daily by macroscopic clinical scoring on a 0-3 scale where 0=normal: 1=slight swelling and erythema. […] Limb swelling was also measured with calipers (Wallace et al. (1999) J. Immunol. 162:5547-5555). […] Cartilage destruction was evaluated as the extent of loss of glycosaminoglycan matrix, death of chondrocytes, thinning and destruction. […]
Compound,ATP-induced IL-1.beta release in peripheral blood (P2X7 receptor [1]; ATP without LPS ex vivo),LPS+ATP-induced IL-1.beta release in peripheral blood (P2X7 receptor [1]; LPS 3 h then ATP 2 h ex vivo),"IL-1.beta in peritoneal lavage in response to ATP, various HN compounds (P2X7 receptor [2])","inhibition of ATP-induced pore formation (ethidium bromide uptake) (P2X7 receptor [3]; ATP 5 mM, 5 min, compound 10^−9M)",inhibition of BzATP-induced pore formation (P2X7 receptor [3]; BzATP 0.5 mM),arthritis score index ([4]; FIG. 12A),"histological score index ([4]; both knees, FIG. 12B)"
"cyclic (-Gly-Ala-Tyr-D-Arg-) (GAYR; HELM PEPTIDE1{G.A.Y.[dR]}$PEPTIDE1,PEPTIDE1,1:R1-4:R2$$$V2.0; SMILES C[C@@H]1NC(=O)CNC(=O)[C@@H](CCCNC(=N)N)NC(=O)[C@H](Cc2ccc(O)cc2)NC1=O) [C-9]",inhibit,inhibit,reduced levels,inhibited significantly,inhibit,,
"N=C(N)NCCC[C@H](Nc1ccccc1NC(=O)Cc1ccc(O)cc1)C(N)=O [C-11, N-5-guanidinopentanamide-(2S)-yl-2-N (p-hydroxyphenylacetyl)phenylenediamine]",,,inactive; also recorded: did not inhibit,,,did not reduce,did not reduce
